Laboratory results: the supplement of paper PMC10567573

B1: KCNA3 (parent)
chain: GERVVINISGLRFETQLKTLCQFP

Variants of: B1
Assay: protein stability index of a GFP-peptide fusion (GPS, HEK-293T) (PSI 1-6); higher = more stable
Details: c terminus: a fixed tail appended
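Further: lentivirally expressed fusions sorted by FACS into six bins by GFP to DsRed ratio, PSI derived from sequencing read proportions per bin multiplied by bin number.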

Protein stability index, by site and new letter:
N7: S 4.73, G 2.14, P 1.53, Q 2.66, D 1.83
S9: L 2.27, E 3.59, P 1, A 1.29, D 1.51, K 2.4, F 2.47, G 1.04, Q 3.24, V 1.83
V4: Y 2.16, M 2.79, Q 2.34, T 2.27, E 1.92, D 1.88, W 2.82, F 3.43, N 1.64, P 2.13, H 2.16, K 2.23, G 1.66, S 2.59, R 2.28, C 3.21, A 1.75
I8: K 1.97, S 1.86, N 2.53, E 3.02, W 1.76, D 2.82, V 1.28, C 2.62, R 1.83, Y 2, F 2.85, M 1.65, A 1.67, H 2.55, G 2.23, Q 2.12, P 3.11, T 2.17
I6: H 1.78, S 2.86, T 2.75, G 1.74, N 3.47, Q 3.56, C 1.38, M 1.32, A 2.21, K 2.68, R 2.21, Y 1.33, P 3.15, D 2.46, E 2.52
F13: A 1.45, S 1.97, G 2.14, L 1.06, D 1.48, K 1.67, E 2.14, V 2.58, N 1.26, M 2.64, C 2.83, Q 1.87, P 2.27, T 1.56, I 2.7
V5: D 1.55, S 1.67, G 2.04, Y 2.39, F 2.05, A 1.53, H 1.93, T 2.42, K 2.49, N 1.76, L 2.29, C 2.49, R 2.18, P 2.17, I 2.99, Q 1.94, E 1.47
R12: W 2.37, P 1.45, N 2.85, K 2.5, Q 2.21, L 4.18, Y 2.61, C 2.46, D 1.84, S 1.48
E14: V 3, M 3.03, K 2.42, G 2.74, Q 1.04, P 1, R 1.89, N 2.08, T 1.83, D 2.37, H 3.28
G1: L 2.66, C 2.8, Q 1.95, I 3.44, K 2.52, R 3.52, T 2.96, N 2.16, Y 4.07, M 3.17, W 4.64, S 3, H 2.1, D 1.82
T15: E 2.62, N 3.66, Y 2.63, Q 2.31, L 3.24, R 2.69, G 4.2
R3: P 2.26, A 3.5, G 1.85, L 2.75, K 2.73, Y 3.34, H 1.04, S 2.16, D 2.44, C 2.36, Q 3.4, N 1.09, T 3.87, M 4.26
L11: G 2.45, F 1.61, E 2.01, T 1.58, S 1.75, N 2.94, P 1.54, H 1.38, I 2.68, W 2.49, V 3.59, A 1.34, Q 1.45, D 1.81
